What was measured:
[1] = target: C. elegans Vps32 (full length, wild type) (C. elegans); assay: cryo-EM imaging
[2] = target: C. elegans Vps32^E94K (C. elegans); assay: SEC
[3] = target: C. elegans Vps4^E219Q (as used alone in light scattering and EM) (C. elegans); assay: SEC-MALS
negative staining EM = target: the molecule itself; assay: negative staining EM

“C. elegans Vps32 (full length, wild type) (natural protein)” showed a stoichiometry N [1] of 800.

For C. elegans Vps32^E94K (natural protein), the percent of the total protein in oligomers [2] was < 5%.

“C. elegans Vps4^E219Q (as used alone in light scattering and EM) (enzyme)” was tested, and the stoichiometry N [3] was 6.

B1: yeast Snf7^R52E (natural protein)
chain: MWSSLFGWTSSNAKNKESPTKAIVRLREHINLLSKKQSHLRTQITNQENEAEIFLTKGNKVMAKNALKKKKTIEQLLSKVEGTMESMEQQLFSIESANLNLETMRAMQEGAKAMKTIHSGLDIDKVDETMDEIREQVELGDEISDAISRPLITGANEVDEDELDEELDMLAQENANQETSKIVNNNVNAAPISENKVSLPSVPSNKIKQSENSVKDGEEEEDEEDEDEKALRELQAEMGL
B1: binds (negative staining EM).
